# Measurements taken from patent US6391305B1, “Conjugates useful in the treatment of prostate cancer” (priority 1999, dated 2002).
# Where “and” joins values, the source holds several entries; their conditions need not be identical. Equal values may be shown once. Read-outs that look alike come from different tables or passages of the source. Marks after values point to notes of the source that are not given here. Non-standard residues stand in square brackets, D forms with d. Residues, ends and D or L forms follow the SMILES beside them. Primed or numbered codes have the meaning given here. No end group written: not given here. *: point of attachment. PEG(1) = polyethylene glycol containing substituent with 1 ethyleneoxy subunit; X5 = (2R,3S)‑2,3,4‑trihydroxybutanoyl, O=C([C@H](O)[C@@H](O)CO)*; Decanoyl(3,6,9-trioxa) = COCCOCCOCC(=O)*; Glyceroyl(2S) = O=C([C@@H](O)CO)*; hArg = N=C(N)NCCCC[C@H](N)C(=O)O; 3Pal = N[C@@H](Cc1cccnc1)C(=O)O; Cha = N[C@@H](CC1CCCCC1)C(=O)O; Chg = N[C@H](C(=O)O)C1CCCCC1; Nle = CCCC[C@H](N)C(=O)O; PEG(15) = PEG(15): -; PEG(16) = PEG(16): -; PEG(17) = PEG(17): -; Glycolyl = O=C(CO)*
# Molecular target: T1, enzymatically active free PSA (Homo sapiens, UniProt P07288)
# T1 construct: required for 50% cleavage of the noted oligopeptides with enzymatically active free PSA
# T1 sequence (P07288 25-261): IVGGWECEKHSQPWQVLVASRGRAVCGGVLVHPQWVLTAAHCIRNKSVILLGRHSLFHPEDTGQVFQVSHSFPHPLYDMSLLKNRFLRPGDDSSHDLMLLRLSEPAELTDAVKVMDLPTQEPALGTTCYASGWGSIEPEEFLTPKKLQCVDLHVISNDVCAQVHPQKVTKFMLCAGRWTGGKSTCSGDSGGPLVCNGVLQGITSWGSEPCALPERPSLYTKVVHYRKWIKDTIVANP
# Type: biochemical
# Conditions: for Time to 50% Substrate Cleavage by York PSA (Min), values marked *: asterisk not explained in Table 2
# Protocol: All other oligopeptides were tested as neutral compounds.
# [1] = oligopeptide, PSA digestion buffer pH8.0, molar ratio to PSA 100 to 1
Molecule,Time to 50% Substrate Cleavage by York PSA [1],further results
"(OH-Ac)SSSChgQ-SL-acid: 2-hydroxyacetyl blocked oligopeptide with PSA cleavage site, Example 1; blocked peptide of Example 3 Step B (Glycolyl-SSS[Chg]QSL-OH)",120 min,–
CCCC[C@H](NC(=O)[C@H](CO)NC(=O)[C@H](CCC(N)=O)NC(=O)[C@H](Cc1ccc(O)cc1)NC(=O)[C@H](CCCCNC(=N)N)NC(=O)[C@H](CO)NC(C)=O)C(=O)O [Ac-ShRYQ-SNle-acid] (Ac-S[hArg]YQS[Nle]-OH),–,"Time to 50% Substrate Cleavage by York PSA (psa digestion buffer, pH 8): 25 min"
"2,3-dihydroxypropionyl-hRSSChgQ-SL-acid: blocked oligopeptide with PSA cleavage site, Example 1",50 min,–
"PEG(2)-ShRYQ-SL-acid: blocked oligopeptide with PSA cleavage site, Example 1 ({Decanoyl(3,6,9-trioxa)}-S[hArg]YQSL-OH)",–,"Time to 50% Substrate Cleavage by York PSA (Min), values marked * (oligopeptide): 35* Min"
"(d)2,3-dihydroxypropionyl-3PAL-SSChgQSL-acid: blocked oligopeptide with PSA cleavage site, Example 1 ({(d)‑2,3‑dihydroxypropionyl}-[3Pal]SS[Chg]QSL-OH)",80 min,–
"PEG(1)-ShRYQ-SL-acid: blocked oligopeptide with PSA cleavage site, Example 1 ({PEG(1)}-S[hArg]YQSL-OH)",90 min,–
"PEG(2)SSSChgQ-SL-acid: blocked oligopeptide with PSA cleavage site, Example 1 ({Decanoyl(3,6,9-trioxa)}-SSS[Chg]QSL-OH)",150 min,–
CCCC[C@H](NC(=O)[C@H](CO)NC(=O)[C@H](CCC(N)=O)NC(=O)[C@H](CC1CCCCC1)NC(=O)[C@H](CCCCNC(=N)N)NC(C)=O)C(=O)O [Ac-hR(CHA)Q-SNle-acid] (Ac-[hArg][Cha]QS[Nle]-OH),–,"Time to 50% Substrate Cleavage by York PSA (psa digestion buffer, pH 8): 200 min"
"PEG(15)-ShRYQ-SL-acid: blocked oligopeptide with PSA cleavage site, Example 1 ({PEG(15)}-S[hArg]YQSL-OH)",40 min,–
"PEG(1)-ShRChgQ-SL-acid: blocked oligopeptide with PSA cleavage site, Example 1 ({PEG(1)}-S[hArg][Chg]QSL-OH)",–,"Time to 50% Substrate Cleavage by York PSA (Min), values marked * (oligopeptide): 120* Min"
"PEG(2)-S-hRChgQ-SL-acid: blocked oligopeptide with PSA cleavage site, Example 1 ({Decanoyl(3,6,9-trioxa)}-S[hArg][Chg]QSL-OH)",30 min,–
"PEG(14)ShRYQ-SL-acid: blocked oligopeptide with PSA cleavage site, Example 1 ({PEG(14)}-S[hArg]YQSL-OH)",40 min,–
"(l)2,3-dihydroxypropionyl-3PAL-SSChgQ-SL-acid: blocked oligopeptide with PSA cleavage site, Example 1 ({Glyceroyl(2S)}-[3Pal]SS[Chg]QSL-OH; SMILES CC(C)C[C@H](NC(=O)[C@H](CO)NC(=O)[C@H](CCC(N)=O)NC(=O)[C@@H](NC(=O)[C@H](CO)NC(=O)[C@H](CO)NC(=O)[C@H](Cc1cccnc1)NC(=O)[C@@H](O)CO)C1CCCCC1)C(=O)O)",70 min,–
"PEG(18)ShRYQ-SL-acid: blocked oligopeptide with PSA cleavage site, Example 1 ({PEG(18)}-S[hArg]YQSL-OH)",40 min,–
"2,3-dihydroxypropionyl-SSSChgQ-SL-acid: blocked oligopeptide with PSA cleavage site, Example 1 ({2,3‑dihydroxypropionyl}-SSS[Chg]QSL-OH)",120 min,–
"PEG(16)-ShRYQ-SL-acid: blocked oligopeptide with PSA cleavage site, Example 1 ({PEG(16)}-S[hArg]YQSL-OH)",40 min,–
"2-hydroxyacetyl-hRSSYQ-SNle-acid: blocked oligopeptide with PSA cleavage site, Example 1 (Glycolyl-[hArg]SSYQS[Nle]-OH)",45 min,–
"Ac-ANKASYQ-SL-acid: blocked oligopeptide with PSA cleavage site, Example 1 (chain 1 Ac-ANKASYQSL-OH; chain 2 Ac-ANKASYQSL-OH)",135 min and 220 min,–
"PEG(17)-ShRYQ-SL-acid: blocked oligopeptide with PSA cleavage site, Example 1 ({PEG(17)}-S[hArg]YQSL-OH)",55 min,–

Molecule,Time to 50% Substrate Cleavage by York PSA [1],further results
"PEG(2)-hRSSChgQ-SL-acid: blocked oligopeptide with PSA cleavage site, Example 1 ({Decanoyl(3,6,9-trioxa)}-[hArg]SS[Chg]QSL-OH)",–,"Time to 50% Substrate Cleavage by York PSA (Min), values marked * (oligopeptide): 40* Min"
"2-hydroxyacetyl-ShRChgQ-SL-acid: blocked oligopeptide with PSA cleavage site, Example 1 (Glycolyl-S[hArg][Chg]QSL-OH)",120 min,"Time to 50% Substrate Cleavage by York PSA (Min), values marked * (oligopeptide): 30 min"
"(l)2,3-dihydroxypropionyl-SSSChgQ-SL-acid: blocked oligopeptide with PSA cleavage site, Example 1 ({Glyceroyl(2S)}-SSS[Chg]QSL-OH)",80 min and 110 min,–
"PEG(19)ShRYQ-SL-acid: blocked oligopeptide with PSA cleavage site, Example 1 ({PEG(19)}-S[hArg]YQSL-OH)",60 min,–
"2(S)2,3-dihydroxypropionyl-hRSSChgQ-SL-acid: blocked oligopeptide with PSA cleavage site, Example 1 ({2(S)‑2,3‑dihydroxypropionyl}-[hArg]SS[Chg]QSL-OH)",–,"Time to 50% Substrate Cleavage by York PSA (Min), values marked * (oligopeptide): 25* Min"
"2,3-dihydroxypropionyl-ShRChgQ-SL-acid: blocked oligopeptide with PSA cleavage site, Example 1 ({2,3‑dihydroxypropionyl}-S[hArg][Chg]QSL-OH)",75 min,–
"2-hydroxyacetyl-hRASChgQ-SL-acid: blocked oligopeptide with PSA cleavage site, Example 1 (Glycolyl-[hArg]AS[Chg]QSL-OH; SMILES CC(C)C[C@H](NC(=O)[C@H](CO)NC(=O)[C@H](CCC(N)=O)NC(=O)[C@@H](NC(=O)[C@H](CO)NC(=O)[C@H](C)NC(=O)[C@H](CCCCNC(=N)N)NC(=O)CO)C1CCCCC1)C(=O)O)",70 min,–
"AchRSSChgQ-SL-acid: blocked oligopeptide with PSA cleavage site, Example 1 (Ac-[hArg]SS[Chg]QSL-OH)",120 min,"Time to 50% Substrate Cleavage by York PSA (Min), values marked * (oligopeptide): 45 min"
"Ac-hRASChgQ-SL-acid: blocked oligopeptide with PSA cleavage site, Example 1 (Ac-[hArg]AS[Chg]QSL-OH; SMILES CC(=O)N[C@@H](CCCCNC(=N)N)C(=O)N[C@@H](C)C(=O)N[C@@H](CO)C(=O)N[C@H](C(=O)N[C@@H](CCC(N)=O)C(=O)N[C@@H](CO)C(=O)N[C@@H](CC(C)C)C(=O)O)C1CCCCC1)",50 min,–
"PEG(1)-hRSSChgQ-SL-acid: blocked oligopeptide with PSA cleavage site, Example 1 ({PEG(1)}-[hArg]SS[Chg]QSL-OH)",30 min,–
"2,3-dihydroxypropionyl-hSSSChgQ-SL-acid: blocked oligopeptide with PSA cleavage site, Example 1 ({2,3‑dihydroxypropionyl}-[hS]SS[Chg]QSL-OH)",160 min,–
"2,3-dihydroxypropionyl-GSSChgQ-SL-acid: blocked oligopeptide with PSA cleavage site, Example 1 ({2,3‑dihydroxypropionyl}-GSS[Chg]QSL-OH)",160 min,–
CC(C)C[C@H](NC(=O)[C@H](CO)NC(=O)[C@H](CCC(N)=O)NC(=O)[C@H](Cc1ccc(O)cc1)NC(=O)[C@H](CO)NC(=O)[C@H](CO)NC(=O)[C@H](CCCCNC(=N)N)NC(=O)CO)C(=O)O [2-hydroxyacetyl-hRSSYQ-SL-acid] (Glycolyl-[hArg]SSYQSL-OH),–,"Time to 50% Substrate Cleavage by York PSA (psa digestion buffer, pH 8): 35 min"
"2-hydroxyacetyl-SSChgQ-SL-acid: blocked oligopeptide with PSA cleavage site, Example 1 (Glycolyl-SS[Chg]QSL-OH)",180 min,–
"2(S)-2,3-dihydroxy-propionyl ShRChgQSL-acid: blocked oligopeptide with PSA cleavage site, Example 1 ({2(S)‑2,3‑dihydroxypropionyl}-S[hArg][Chg]QSL-OH)",–,"Time to 50% Substrate Cleavage by York PSA (Min), values marked * (oligopeptide): 35* Min"
"(l)2,3-dihydroxypropionyl-SSChgQ-SL-acid: blocked oligopeptide with PSA cleavage site, Example 1 ({Glyceroyl(2S)}-SS[Chg]QSL-OH)",180 min,–
"ShRChgQ-SL-acid: oligopeptide without N-terminal blocking group, Example 1 (S[hArg][Chg]QSL-OH)",–,"Substrate cleavage by York PSA at 4 HOUR (oligopeptide, 4 hours): 4 HOUR = 8%"
"2-hydroxyacetylhRYQ-SL-acid: blocked oligopeptide with PSA cleavage site, Example 1 (Glycolyl-[hArg]YQSL-OH; SMILES CC(C)C[C@H](NC(=O)[C@H](CO)NC(=O)[C@H](CCC(N)=O)NC(=O)[C@H](Cc1ccc(O)cc1)NC(=O)[C@H](CCCCNC(=N)N)NC(=O)CO)C(=O)O)",–,"Time to 50% Substrate Cleavage by York PSA (Min), values marked * (oligopeptide): 105* Min"
"(2R,3S) 2,3,4-trihydroxybutanoyl-ShRChgQ-SL-acid: blocked oligopeptide with PSA cleavage site, Example 1 (X5-S[hArg][Chg]QSL-OH)",90 min,–
